# Values of other authors in patent publication US9453050B2, “Compositions for treating glioma” (GLIA SP Z.O.O., priority 2011, dated 2016).
# What was measured:
# [1] = target: T1, high affinity receptor (GM-CSFRα.βc complex) (Homo sapiens, UniProt P15509+P32927); conditions: VonFeldt et al.; cited from earlier work
# T1 sequence (P15509 23-400): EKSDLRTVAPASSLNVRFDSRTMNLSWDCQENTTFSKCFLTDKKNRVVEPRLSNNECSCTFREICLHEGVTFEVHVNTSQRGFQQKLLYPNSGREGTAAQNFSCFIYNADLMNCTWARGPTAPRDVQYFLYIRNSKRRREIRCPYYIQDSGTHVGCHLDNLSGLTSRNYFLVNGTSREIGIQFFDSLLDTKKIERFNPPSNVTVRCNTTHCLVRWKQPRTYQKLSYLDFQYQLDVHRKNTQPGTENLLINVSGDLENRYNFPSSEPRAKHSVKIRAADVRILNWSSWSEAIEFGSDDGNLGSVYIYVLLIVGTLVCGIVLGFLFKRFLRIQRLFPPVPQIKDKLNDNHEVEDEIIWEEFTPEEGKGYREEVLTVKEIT
# T1 sequence (P32927 17-897): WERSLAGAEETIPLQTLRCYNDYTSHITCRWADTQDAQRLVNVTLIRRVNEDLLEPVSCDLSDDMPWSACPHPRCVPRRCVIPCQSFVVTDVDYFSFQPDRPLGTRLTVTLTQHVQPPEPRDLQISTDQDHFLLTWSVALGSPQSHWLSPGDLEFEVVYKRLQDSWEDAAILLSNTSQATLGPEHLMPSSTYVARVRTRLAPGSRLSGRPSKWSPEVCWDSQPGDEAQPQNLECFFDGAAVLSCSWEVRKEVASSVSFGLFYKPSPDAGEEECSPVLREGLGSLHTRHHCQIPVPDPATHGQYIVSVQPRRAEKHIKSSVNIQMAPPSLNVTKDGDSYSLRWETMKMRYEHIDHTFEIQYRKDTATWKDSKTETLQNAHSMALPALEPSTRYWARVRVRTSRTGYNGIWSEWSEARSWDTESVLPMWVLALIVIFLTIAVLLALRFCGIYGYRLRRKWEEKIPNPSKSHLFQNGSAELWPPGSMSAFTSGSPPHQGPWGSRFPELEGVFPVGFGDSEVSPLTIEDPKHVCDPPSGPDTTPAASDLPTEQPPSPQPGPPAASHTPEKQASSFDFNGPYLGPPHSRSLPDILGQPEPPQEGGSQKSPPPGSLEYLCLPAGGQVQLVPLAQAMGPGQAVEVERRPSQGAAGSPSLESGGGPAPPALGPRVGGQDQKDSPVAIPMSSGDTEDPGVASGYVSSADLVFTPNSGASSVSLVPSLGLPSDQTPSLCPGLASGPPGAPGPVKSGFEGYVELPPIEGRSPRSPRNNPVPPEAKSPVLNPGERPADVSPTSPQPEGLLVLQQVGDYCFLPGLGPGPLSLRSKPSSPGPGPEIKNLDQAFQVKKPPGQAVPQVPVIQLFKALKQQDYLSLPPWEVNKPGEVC
# [2] = target: T2, low affinity receptor (GM-CSFRα alone) (Homo sapiens, UniProt P15509); conditions: VonFeldt et al.; cited from earlier work
# T2 sequence (P15509 23-400): T1 sequence (P15509 23-400)
Substance,high affinity receptor binding [1],low affinity receptor binding [2]
"amino acids 17-31 (the A helix) of GM-CSF: linear peptide analog of GM-CSF, VonFeldt et al. (NAIQEARRLLNLSRD; UniProt P04141 34-48, looked up, fragment)",inhibits,–
"peptide consisting of amino acids 54-78 (B and C helices): linear peptide analog of GM-CSF, VonFeldt et al. (CLQTRLELYKQGLRGSLTKLKGPLT; UniProt P04141 71-95, looked up, fragment)",–,inhibits
